This is an account of results in patent US10098962B2, “Glycosaminoglycan derivative and method for producing same” (Seikagaku Corporation, priority 2013, dated 2018).

Assay type in all cases: physicochemical
Conditions in all cases: 0.1% in 20 mM sodium phosphate buffer pH 7.0, 36°C

Data set [1] in a line: Release test for conjugates obtained from Examples 18 to 21 (Test Example A5). The source says: The amount of the dissociated diclofenac component which is present in an initial state (storage: Day 0) immediately after the dissolution, and the amount of diclofenac ester which has been forced to dissociate by using a base were subjected to quantitative analysis based on ODS-HPLC. […] From the ratio between the obtained amount of the dissociated diclofenac component at each time point and the amount of dissociated diclofenac component resulting from forced dissociation, the dissociation ratio (%) was calculated. For a pre-treatment of a HPLC sample, OASIS HLB was used, and a fraction eluted by acetonitrile was analyzed. HPLC conditions are as follows. column: […] temperature: 35° C.

The nature of data set [2]: Release test for conjugates obtained from Examples 22 to 25 (Test Example A6). The text has this: (§1) The amount of the dissociated diclofenac component which is present in an initial state (storage: Day 0) immediately after the dissolution, and the amount of diclofenac ester which has been forced to dissociate by using a base were subjected to quantitative analysis based on ODS-HPLC. […] From the ratio between the obtained amount of the dissociated diclofenac component at each time point and the amount of dissociated diclofenac component resulting from forced dissociation, the dissociation ratio (%) was calculated. For a pre-treatment of a HPLC sample, OASIS HLB was used, and a fraction eluted by acetonitrile was analyzed. HPLC conditions are as follows. column: […] flow rate: 1 mL/min temperature: 35° C.

A short description of data set [3]: Release test for conjugates obtained from Examples 15 to 17 (Test Example A4).
Description: as §1

Regarding “diclofenac (1-amino-3,3-dimethylbutan-2-ol)-chondroitin sulfate [Example A5-1]”, the diclofenac dissociation ratio in data set [1] (day 0) was 0.0%; in data set [1] (day 1) it was 0.0%; in data set [1] (day 2) it was 0.1%; in data set [1] (day 4) it was 0.1%; in data set [1] (day 8), 0.2%.

In the case of “diclofenac (1-amino-3,3-dimethylbutan-2-ol)-hyaluronic acid [Example A6-1]”, the diclofenac dissociation ratio is given as 0.0% in data set [2] (day 0); 0.1% in data set [2] (day 1); 0.2% in data set [2] (day 2); 0.4% in data set [2] (day 4); 0.8% in data set [2] (day 8).

For “diclofenac (2-amino-1-cyclohexylethan-1-ol)-chondroitin sulfate [Example A5-3]”, the diclofenac dissociation ratio in data set [1] (day 0) is 0.0%; in data set [1] (day 1) it was 0.1%; in data set [1] (day 2), 0.1%; in data set [1] (day 4), 0.2%; in data set [1] (day 8), 0.4%.

As for “diclofenac (2-amino-1-cyclohexylethan-1-ol)-hyaluronic acid [Example A6-3]”, the diclofenac dissociation ratio in data set [2] (day 0) is 0.0%; in data set [2] (day 1), 0.2%; in data set [2] (day 2), 0.4%; in data set [2] (day 4) it was 0.7%; in data set [2] (day 8) it was 1.6%.

For the substance “diclofenac (4-amino-3-hydroxybutyric acid ethyl ester)-chondroitin sulfate [Example A5-4]”, the diclofenac dissociation ratio was 0.1% in data set [1] (day 0); 0.4% in data set [1] (day 1); 0.9% in data set [1] (day 2); 1.7% in data set [1] (day 4); 3.3% in data set [1] (day 8).

As to “diclofenac (4-amino-3-hydroxybutyric acid ethyl ester)-hyaluronic acid [Example A6-4]”, the diclofenac dissociation ratio was 0.2% in data set [2] (day 0); 1.7% in data set [2] (day 1); 3.2% in data set [2] (day 2); 6.2% in data set [2] (day 4); 13.0% in data set [2] (day 8).

“diclofenac (serine ethyl ester)-chondroitin sulfate [Example A4-2]”: the diclofenac dissociation ratio amounted to 0.0% in data set [3] (day 0); 10.9% in data set [3] (day 1); 16.9% in data set [3] (day 2); 31.9% in data set [3] (day 4); 42.2% in data set [3] (day 8).

On to “diclofenac (threonine ethyl ester)-chondroitin sulfate [Example A4-3]”, for which the diclofenac dissociation ratio in data set [3] (day 0) came out at 0.1%; in data set [3] (day 1), 2.0%; in data set [3] (day 2), 4.0%; in data set [3] (day 4), 7.2%; in data set [3] (day 8) it was 10.5%.
